The supplement of paper PMC10724198
± gives the standard deviation of the averaged measurements.

Tested on: Saccharomyces cerevisiae
Assay: protein stability index of tFT-peptide fusion (C-terminal peptide) (PSI (0-1 scale)); higher = more stable (slower turnover)
Conditions: temperature: 30 C
Description: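 MPS profiling in S. cerevisiae of the yeast C-terminome library: the last 12 aa of each annotated ORF are fused to the C-terminus of a sfGFP-mCherry timer, after a GGGS linker. Cells are FACS-sorted into 8 mCherry/sfGFP bins and deep-sequenced. PSI runs from 0 (unstable) to 1 (stable); wild type and das1Δ backgrounds, two technical replicates each.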

[1] = genetic background: das1 deletion

| Sequence | protein stability index [1] | protein stability index (genetic background: wild type) |
| --- | --- | --- |
| KPGTIIHFSTNR [ASK1 C-terminal 12 aa] | 0.71325 ± 0.00059 | 0.691 ± 0.034 |
| KQEQESLGSNSK [DAD3 C-terminal 12 aa] | 0.666 ± 0.012 | 0.661 ± 0.035 |
| KQLDLKHMLEMH [MRPL44 C-terminal 12 aa] | 0.7 ± 0.0085 | 0.6897 ± 0.0057 |
| KQPDLQERVTQE [MHF1 C-terminal 12 aa] | 0.666 ± 0.045 | 0.685 ± 0.14 |
| KRAELASKYIYS [COG8 C-terminal 12 aa] | 0.713 ± 0.022 | 0.692 ± 0.015 |
| KRGEIYETGKFF [OLE1 C-terminal 12 aa] | 0.707 ± 0.011 | 0.723 ± 0.011 |
| KTSNTKVSSRKA [ELO3 C-terminal 12 aa] | 0.6964 ± 0.0051 | 0.673 ± 0.03 |
| KTSPTCHNMFDV [SDD4 C-terminal 12 aa] | 0.7283 ± 0.0018 | 0.6781 ± 0.00075 |
| KVGNDHMELKKE [TFG1 C-terminal 12 aa] | 0.699 ± 0.013 | 0.671 ± 0.035 |
| KVHEHDAKNDSK [CMP2 C-terminal 12 aa] | 0.702 ± 0.032 | 0.688 ± 0.054 |
| KVTFINIEINYR [YGR064W C-terminal 12 aa] | 0.57 ± 0.02 | 0.591 ± 0.03 |
| KWFRENDGKKAN [TSC10 C-terminal 12 aa] | 0.7006 ± 0.0047 | 0.6772 ± 0.0044 |
| KWIEYVEEFQNW [FRE5 C-terminal 12 aa] | 0.7168 ± 0.00097 | 0.73 ± 0.016 |
| LAKGGADVKPKK [RDL2 C-terminal 12 aa] | 0.7071 ± 0.0016 | 0.708 ± 0.033 |
| LASALKELQDAA [YHR112C C-terminal 12 aa] | 0.691 ± 0.0097 | 0.682 ± 0.031 |
| LASVRLSWYSII [YGR204C-A C-terminal 12 aa] | 0.71 ± 0.021 | 0.277 ± 0.014 |
| LDLVARTATLSN [NUP84 C-terminal 12 aa] | 0.695 ± 0.014 | 0.713 ± 0.026 |
| LDNILADLELDV [YIL001W C-terminal 12 aa] | 0.72202 ± 0.00032 | 0.684 ± 0.046 |
| LDYLSSYINRRI [FLP1 C-terminal 12 aa] | 0.7058 ± 0.00092 | 0.6948 ± 0.0047 |
| LEDEDVVTILKK [RBG1 C-terminal 12 aa] | 0.705 ± 0.021 | 0.707 ± 0.0083 |
| LEKQEDYIDNLV [RPC37 C-terminal 12 aa] | 0.697 ± 0.02 | 0.73 ± 0.056 |

| Sequence | protein stability index [1] | protein stability index (genetic background: wild type) |
| --- | --- | --- |
| LFCNYITETVEN [ASH1 C-terminal 12 aa] | 0.694 ± 0.0018 | 0.645 ± 0.095 |
| LFSNVLSLSSNI [YGL007C-A C-terminal 12 aa] | 0.7296 ± 0.0024 | 0.695 ± 0.016 |
| LIGGVGLSIWKK [RTT10 C-terminal 12 aa] | 0.7069 ± 0.0038 | 0.668 ± 0.032 |
| LIHASSVEQATA [MRPL4 C-terminal 12 aa] | 0.68 ± 0.016 | 0.6986 ± 0.0057 |
| LILQRLKTSLKI [GFD1 C-terminal 12 aa] | 0.617 ± 0.024 | 0.668 ± 0.03 |
| LIWLTIIYQALT [IRC18 C-terminal 12 aa] | 0.249 ± 0.015 | 0.269 ± 0.0048 |
| LKEFTQFCKDNS [MIX23 C-terminal 12 aa] | 0.724 ± 0.023 | 0.721 ± 0.025 |
| LKFEPTQEIVES [ITR2 C-terminal 12 aa] | 0.7054 ± 0.002 | 0.677 ± 0.032 |
| LKFLEEKFPHDK [AIM17 C-terminal 12 aa] | 0.708 ± 0.02 | 0.691 ± 0.03 |
| LKIKVHIYRMKR [YHL015W-A C-terminal 12 aa] | 0.597 ± 0.021 | 0.5995 ± 0.0016 |
| LKKEKLQALPTP [PDP3 C-terminal 12 aa] | 0.691 ± 0.00082 | 0.675 ± 0.011 |
| LKLEQKIGELSK [CRN1 C-terminal 12 aa] | 0.679 ± 0.0071 | 0.718 ± 0.097 |
| LKNGDKPHMLKF [RPL6A C-terminal 12 aa] | 0.6789 ± 0.0021 | 0.72 ± 0.053 |
| LKQIEMISGFSL [ADF1 C-terminal 12 aa] | 0.707 ± 0.012 | 0.683 ± 0.053 |
| LKTTPCLTHWYN [YIR030W-A C-terminal 12 aa] | 0.699 ± 0.022 | 0.663 ± 0.033 |
| LLCRDSSREVGE [YBL113C C-terminal 12 aa] | 0.702 ± 0.022 | 0.673 ± 0.014 |
| LLEGIIIKLFLY [YDL011C C-terminal 12 aa] | 0.423 ± 0.0049 | 0.174 ± 0.0066 |
| LLGVGIAFYQDR [YJR112W-A C-terminal 12 aa] | 0.706 ± 0.033 | 0.678 ± 0.018 |
| LLLKVEKKGSKK [HTZ1 C-terminal 12 aa] | 0.706 ± 0.034 | 0.716 ± 0.041 |
| LLLQKSGTYLLL [ARV1 C-terminal 12 aa] | 0.639 ± 0.032 | 0.638 ± 0.0066 |
